Here are results for six sequences from the supplement of paper PMC5998384.

The subject of data set [1] is HeLa Kyoto. The experiment in a line: solubility change mitosis vs G1/S (difference of NP-40 vs SDS log2 ratios) (log2 ratio difference); higher = more soluble in mitosis.
The test system of data set [2] is HeLa Kyoto. Kind of data set: thermal stability score vs G1/S (z-score of summed log2 fold changes over temperatures); higher = more thermally stable than in G1/S.
Data set [3] deals with HeLa Kyoto. The experiment in a line: solubility in G1/S (NP-40 vs SDS abundance) (log2 ratio); higher = more soluble. As to conditions: cell cycle stage: G1/S.
The subject of data set [4] is HeLa Kyoto. The experiment in a line: melting temperature (median over replicates), in situ; higher = more thermally stable.
Setting [5] is: cell cycle stage: early G1 (4.5 h after nocodazole release).
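Throughout, for melting temperature (median over replicates), in situ: HeLa Kyoto cells synchronized by double thymidine or nocodazole block, proteins quantified by TMT10plex mass spectrometry, three independent biological replicates.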
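Throughout, for solubility change mitosis vs G1/S (difference of NP-40 vs SDS log2 ratios): synchronized HeLa Kyoto cells (double thymidine block for G1/S, nocodazole release for mitosis), protein amounts in NP-40 versus SDS lysates quantified by mass spectrometry, three biological replicates.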
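Throughout, for solubility in G1/S (NP-40 vs SDS abundance): HeLa Kyoto cells arrested at G1/S by double thymidine block, proteins quantified by TMT10plex mass spectrometry in mild NP-40 versus SDS extracts, three biological replicates.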
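Throughout, for thermal stability score vs G1/S (z-score of summed log2 fold changes over temperatures): synchronized HeLa Kyoto cells, proteins quantified by TMT10plex mass spectrometry, three biological replicates, mitosis taken 0.5 h after nocodazole release, G1/S directly after double thymidine block.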

For the sequence “MGEFNEKKTTCGTVCLKYLLFTYNCCFWLAGLAVMAVGIWTLALKSDYISLLASGTYLATAYILVVAGTVVMVTGVLGCCATFKERRNLLRLYFILLLIIFLLEIIAGILAYAYYQQLNTELKENLKDTMTKRYHQPGHEAVTSAVDQLQQEFHCCGSNNSQDWRDSEWIRSQEAGGRVVPDSCCKTVVALCGQRDHASNIYKVEGGCITKLETFIQEHLRVIGAVGIGIACVQVFGMIFTCCLYRSLKLEHY [CD151]”, the “solubility change mitosis (log2)” value with HeLa Kyoto [1] is 0.0099. Besides, the thermal stability score in the data set with HeLa Kyoto [2] (setting [5]) is 0.401; with HeLa Kyoto [2] (cell cycle stage: mitosis), -1.63. Besides, the “solubility in G1/S (log2)” value in the data set on HeLa Kyoto [3] was -0.288. The melting temperature in the data set with HeLa Kyoto [4] (cell cycle stage: G1/S) came to 60 °C; in the data set on HeLa Kyoto [4] (cell cycle stage: mitosis) it was 61.3 °C.
On to “MGEKSENCGVPEDLLNGLKVTDTQEAECAGPPVPDPKNQHSQSKLLRDDEAHLQEDQGEEECFHDCSASFEEEPGADKVENKSNEDVNSSELDEEYLIELEKNMSDEEKQKRREESTRLKEEGNEQFKKGDYIEAESSYSRALEMCPSCFQKERSILFSNRAAARMKQDKKEMAINDCSKAIQLNPSYIRAILRRAELYEKTDKLDEALEDYKSILEKDPSIHQAREACMRLPKQIEERNERLKEEMLGKLKDLGNLVLRPFGLSTENFQIKQDSSTGSYSINFVQNPNNNR [TTC1]”, for which the “solubility change mitosis (log2)” value with HeLa Kyoto [1] amounted to 0.183. Further, the thermal stability score was -3 with HeLa Kyoto [2] (setting [5]) and -2.41 in the data set with HeLa Kyoto [2] (cell cycle stage: mitosis). The “solubility in G1/S (log2)” value in the data set on HeLa Kyoto [3] amounted to 0.455. Moreover, the melting temperature in the data set on HeLa Kyoto [4] (cell cycle stage: G1/S) was 56.2 °C; in the data set with HeLa Kyoto [4] (cell cycle stage: mitosis), 56.4 °C.
Consider “MGEPQGSMRILVTGGSGLVGKAIQKVVADGAGLPGEDWVFVSSKDADLTDTAQTRALFEKVQPTHVIHLAAMVGGLFRNIKYNLDFWRKNVHMNDNVLHSAFEVGARKVVSCLSTCIFPDKTTYPIDETMIHNGPPHNSNFGYSYAKRMIDVQNRAYFQQYGCTFTAVIPTNVFGPHDNFNIEDGHVLPGLIHKVHLAKSSGSALTVWGTGNPRRQFIYSLDLAQLFIWVLREYNEVEPIILSVGEEDEVSIKEAAEAVVEAMDFHGEVTFDTTKSDGQFKKTASNSKLRTYLPDFRFTPFKQAVKETCAWFTDNYEQARK [TSTA3]”, for which, in the data set on HeLa Kyoto [1], the “solubility change mitosis (log2)” value is -0.116. Besides, the thermal stability score was -3.68 in the data set with HeLa Kyoto [2] (setting [5]) and -2.17 with HeLa Kyoto [2] (cell cycle stage: mitosis). Further, the “solubility in G1/S (log2)” value with HeLa Kyoto [3] was 0.141. In addition, the results for the melting temperature in the data set with HeLa Kyoto [4] (cell cycle stage: G1/S) and in the data set with HeLa Kyoto [4] (cell cycle stage: mitosis) were 59.3 °C and 58.2 °C, respectively.
Consider “MGFGDLKSPAGLQVLNDYLADKSYIEGYVPSQADVAVFEAVSSPPPADLCHALRWYNHIKSYEKEKASLPGVKKALGKYGPADVEDTTGSGATDSKDDDDIDLFGSDDEEESEEAKRLREERLAQYESKKAKKPALVAKSSILLDVKPWDDETDMAKLEECVRSIQADGLVWGSSKLVPVGYGIKKLQIQCVVEDDKVGTDMLEEQITAFEDYVQSMDVAAFNKI [EEF1B2]”, for which the “solubility change mitosis (log2)” value with HeLa Kyoto [1] came to 0.236. Besides, the results for the thermal stability score in the data set on HeLa Kyoto [2] (setting [5]) and in the data set with HeLa Kyoto [2] (cell cycle stage: mitosis) were -1.43 and -1.91, respectively. For the same sequence, in the data set with HeLa Kyoto [3], the “solubility in G1/S (log2)” value was 0.522. Moreover, the melting temperature was found to be 50.7 °C in the data set with HeLa Kyoto [4] (cell cycle stage: G1/S) and 50.6 °C with HeLa Kyoto [4] (cell cycle stage: mitosis).
With “MGHPPLLPLLLLLHTCVPASWGLRCMQCKTNGDCRVEECALGQDLCRTTIVRLWEEGEELELVEKSCTHSEKTNRTLSYRTGLKITSLTEVVCGLDLCNQGNSGRAVTYSRSRYLECISCGSSDMSCERGRHQSLQCRSPEEQCLDVVTHWIQEGEEGRPKDDRHLRGCGYLPGCPGSNGFHNNDTFHFLKCCNTTKCNEGPILELENLPQNGRQCYSCKGNSTHGCSSEETFLIDCRGPMNQCLVATGTHEPKNQSYMVRGCATASMCQHAHLGDAFSMNHIDVSCCTKSGCNHPDLDVQYRSGAAPQPGPAHLSLTITLLMTARLWGGTLLWT [PLAUR]”, the “solubility change mitosis (log2)” value in the data set on HeLa Kyoto [1] is -0.232. In addition, the thermal stability score with HeLa Kyoto [2] (setting [5]) was found to be 0.197; in the data set with HeLa Kyoto [2] (cell cycle stage: mitosis) it was 4.92. Further, the “solubility in G1/S (log2)” value in the data set on HeLa Kyoto [3] is 0.19. The melting temperature with HeLa Kyoto [4] (cell cycle stage: G1/S) was determined as 52.8 °C; in the data set on HeLa Kyoto [4] (cell cycle stage: mitosis) it was 56.2 °C.
On to “MGKGDPKKPRGKMSSYAFFVQTCREEHKKKHPDASVNFSEFSKKCSERWKTMSAKEKGKFEDMAKADKARYEREMKTYIPPKGETKKKFKDPNAPKRPPSAFFLFCSEYRPKIKGEHPGLSIGDVAKKLGEMWNNTAADDKQPYEKKAAKLKEKYEKDIAAYRAKGKPDAAKKGVVKAEKSKKKKEEEEDEEDEEDEEEEEDEEDEDEEEDDDDE [HMGB1]”, for which the “solubility change mitosis (log2)” value with HeLa Kyoto [1] is 0.257. The thermal stability score with HeLa Kyoto [2] (setting [5]) was 3.27; in the data set on HeLa Kyoto [2] (cell cycle stage: mitosis), 2.58. For the same sequence, in the data set with HeLa Kyoto [3], the “solubility in G1/S (log2)” value came to 0.464. For the same sequence, the melting temperature amounted to 55.4 °C in the data set with HeLa Kyoto [4] (cell cycle stage: G1/S) and 54.4 °C in the data set on HeLa Kyoto [4] (cell cycle stage: mitosis).
